In patent US20220177547A1 (KYUNGPOOK NATIONAL UNIVERSITY INDUSTRY ACADEMIC COOPERATION …, published 2022):

B1: TRAIL-ATNC^IL4rP (other)
chain: MGSSHHHHHHSSGLVPRGSQHMVRERGPQRVAAHITGTRGRSNTLSSPNSKNEKALGRKINSWESSRSGHSFLSNLHLRNGELVIHEKGFYYIYSQTYFRFQEEIKENTKNDKQMVQYIYKYTSYPDPILLMKSARNSCWSKDAEYGLYSIYQGGIFELKENDRIFVSVTNEHLIDMDHEASFFGAFLVGGSGGGSGEFEALQGQVQHLQAAFSQYKKVELFPVDGGGGAEAAAKEAAAKTSDSEAAINRQINLELYASYVYLSMSYYFDRDDVALKNFAKYFLHQSHEEREHAEKLMKLQNQRGGRIFLQDIKKPDCDDWESGLNAMECALHLEKNVNQSLLELHKLATDKNDPHLCDFIETHYLNEQVKAIKELGDHVTNLRKMGAKLGGGSGGPLGLAGGGGSGCRKRLDRNC
notes: Ferritin nanocage of 24 fusion polypeptides; It was expressed from pET-28a and purified on Ni-NTA; also called TRAIL trimer fusion protein expressed on the cancer-targeting ferritin nanocage
B2: TRAIL-ATNC (Active Trimer Nanocage) (other)
chain: MGSSHHHHHHSSGLVPRGSQHMVRERGPQRVAAHITGTRGRSNTLSSPNSKNEKALGRKINSWESSRSGHSFLSNLHLRNGELVIHEKGFYYIYSQTYFRFQEEIKENTKNDKQMVQYIYKYTSYPDPILLMKSARNSCWSKDAEYGLYSIYQGGIFELKENDRIFVSVTNEHLIDMDHEASFFGAFLVGGSGGGSGEFEALQGQVQHLQAAFSQYKKVELFPVDGGGGAEAAAKEAAAKTSDSEAAINRQINLELYASYVYLSMSYYFDRDDVALKNFAKYFLHQSHEEREHAEKLMKLQNQRGGRIFLQDIKKPDCDDWESGLNAMECALHLEKNVNQSLLELHKLATDKNDPHLCDFIETHYLNEQVKAIKELGDHVTNLRKMGAKL
notes: It was expressed from pET-28a and purified on Ni-NTA; also called TRAIL-attached nanocage

Columns and labels:
[1] = target: T1, Interleukin 4 receptor (IL4R) protein (UniProt P24394 26-232, limits assumed); test: SPR, IL4R coupled to gold sensor chip, TRAIL-ATNC^IL4rP flowed 41.67 nM to 0.65 nM
T1 construct: Purified protein amine-coupled (NHS-EDC) to the SPR chip; The construct is not described
T1 sequence (looked up): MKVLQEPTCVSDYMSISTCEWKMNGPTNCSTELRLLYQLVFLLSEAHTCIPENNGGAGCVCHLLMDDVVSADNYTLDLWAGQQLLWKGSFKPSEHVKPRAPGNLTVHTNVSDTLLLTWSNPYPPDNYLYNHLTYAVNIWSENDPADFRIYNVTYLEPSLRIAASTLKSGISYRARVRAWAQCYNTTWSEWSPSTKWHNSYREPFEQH
Description: Interleukin 4 receptor (IL4R) protein was coupled to the surface of a gold sensor chip for surface resonance plasma (SPR) activated with NHS-EDC, and TRAIL-ATNC^IL4rP dissolved in TBS was flowed from 41.67 nM to 0.65 nM in half on the IL4R-coupled gold sensor chip to analyze binding kinetics. The right channel, which was not coated with IL4R, was used as a reference.

[2] = target: T2, TRAIL receptor protein Dr5 (UniProt O14763 56-182, limits assumed); test: SPR, Dr5 coupled to gold sensor chip
T2 construct: Purified protein amine-coupled (NHS-EDC) to the SPR chip; The construct is not described
Description: (§1) The TRAIL receptor protein Dr5 was coupled to a surface of a gold sensor chip by flowing it on the surface of the gold sensor chip for surface resonance plasma (SPR) activated with NHS-EDC, and blocked with ethanolamine. The binding kinetics were analyzed by flowing TRAIL-ATNC dissolved in TBS from 8.33 nM to 0.52 nM by half, and TRAIL from 400 nM to 25 nM by half on the TRAIL receptor-coupled gold sensor chip, respectively. The right channel, which was not coated with Dr5, was used as a control (or reference).
It was determined that TRAIL-ATNC bound to the TRAIL receptor faster than TRAIL, and formed a stable complex in which dissociation was delayed after binding.

[3] = target: T2, TRAIL receptor protein Dr5; test: SPR, Dr5 coupled to gold sensor chip, TRAIL-ATNC flowed 8.33 nM to 0.52 nM
Description: as §1

Binder	Kd [1]	fold higher kon than TRAIL alone [2]	fold lower KD than TRAIL [2]	fold lower koff than TRAIL alone [2]	Kd [3]	koff [3]	kon [3]
B1	37.7 nM						
B2		~10 fold	~100 fold	~10 fold	0.411 nM	0.000217 s⁻¹	529000 M⁻¹ s⁻¹
